# Assay results as given in US20260055173A1 (published 2026).
# T1: mouse VEGF-A (mouse, UniProt Q00731-2 27-190, limits assumed)
# T1 sequence (looked up): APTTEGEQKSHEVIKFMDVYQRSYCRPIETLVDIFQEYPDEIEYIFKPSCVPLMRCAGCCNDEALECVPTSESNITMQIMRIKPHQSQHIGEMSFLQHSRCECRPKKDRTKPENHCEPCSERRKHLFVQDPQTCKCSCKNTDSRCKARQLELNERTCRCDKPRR
# Legend:
# [1] = target: T2, human PD-1 (ACRO, His tag) (human, UniProt Q15116 25-167); assay: ELISA, human PD-1 (His tag) coated, anti-human IgG Fc-HRP
# T2 construct: not shown: His tag
# Method: (§1) The binding of the antibody to human PD-1 was detected by ELISA. 1 μg/mL human PD-1 (ACRO, His tag) was coated on an ELISA plate overnight and blocked. Subsequently, the plate was added with gradient dilutions of the bispecific antibody and the control antibody, incubated and washed. Then, the plate was added with HRP-labeled anti-human IgG Fc secondary antibody, incubated and washed. After TMB solution was added for color development, the OD450 absorbance value was read on a microplate reader (see Table 12). […] Subsequently, the plate was added with gradient dilutions of the sample to be tested and the control antibody, incubated and washed. Then, the plated was added with HRP-labeled anti-human IgG Fc secondary antibody, incubated and washed. After TMB solution was added for color development, the OD450 absorbance value was read on a microplate reader (see Table 13). […] (The control substances were all obtained by in-house expression and purification)
# [2] = target: monkey PD-1 (ACRO, His tag) (monkey, UniProt B0LAJ3 25-170); assay: ELISA, monkey PD-1 (His tag) coated, anti-human IgG Fc-HRP
# Method: The binding of candidate molecules and competitor to antigens of different species was detected by ELISA. […] The binding of antibodies to monkey PD-1 was detected by ELISA. An ELISA plate was coated with 1 μg/mL monkey PD-1 (ACRO, His tag) overnight and blocked. Subsequently, the plate was added with gradient dilutions of the sample to be tested and the control antibody, incubated and washed. Then, the plate was added with HRP-labeled anti-human IgG Fc secondary antibody, incubated and washed. After TMB solution was added for color development, the OD450 absorbance value was read on a microplate reader (see Table 15).
# [3] = target: T2, human PD-1 (ACRO, His tag); assay: dual (bridging) ELISA: human PD-1 (His tag) coated, antibody, then biotinylated human VEGF, streptavidin-HRP
# Method: (§2) The order of the binding to VEGF and PD-1 was changed for dual ELISA detection. A 96-well ELISA plate was coated with 1 μg/mL human PD-1 (ACRO, His tag) overnight, washed and blocked for 1 hour. […] TMB solution was added for color development, and the OD450 nm absorbance value was read on a microplate reader.
# [4] = target: VEGF; assay: cell-based or functional assay
# [5] = target: T3, human VEGF (ACRO, His tag) (human, UniProt P15692-4 27-191, limits assumed); assay: ELISA, human VEGF (His tag) coated, anti-human IgG Fc-HRP
# T3 construct: not shown: His tag
# Method: as §1
# [6] = target: human VEGF (Sino Biological, no label) (human, UniProt P15692-4 27-191, limits assumed); assay: dual (bridging) ELISA: human VEGF (no label) coated, antibody, then human PD-1 (His tag), anti-His-HRP
# Method: Biological, no label) overnight, washed and blocked for 1 hour. Subsequently, the plate was added with gradient dilutions of the test antibody, incubated for 2 hours, then added with 1 μg/mL of human PD-1 (ACRO, His tag), incubated for 2 hours, washed, and incubated with HRP-labeled anti-His antibody for 1 hour. After TMB solution was added for color development, the OD450 nm absorbance value was read on a microplate reader.
# [7] = target: T4, human PD-1 (ACRO, Fc tag) (human, UniProt Q15116 25-167); assay: competition ELISA: human PD-1 (Fc tag) coated, antibody mixed with human PD-L1 (His tag), anti-His-HRP
# T4 construct: not shown: Fc tag
# Method: (§3) An ELISA plate was coated with 1 ug/mL of human PD-1 (ACRO, Fc tag) overnight, washed and blocked. […] Then the plate was added with HRP-labeled anti-His antibody, and incubated for 1 hour. After TMB solution was added for color development, the OD450 absorbance value was read on a microplate reader (see Table 16).
# [8] = target: T5, biotin-labeled human VEGF (ACRO, biotinylated protein) (human, UniProt P15692-4 27-191, limits assumed, biotinylated (site not stated)); assay: competition ELISA: human VEGFR1 (Fc tag) coated, antibody mixed with biotinylated human VEGF, streptavidin-HRP
# Method: (§4) ELISA plates were respectively coated with 2 μg/mL human VEGFR1 and 5 μg/mL human VEGFR2 (in-house constructed and expressed, Fc tag) overnight, washed and blocked. […] Then the plates were added with HRP-labeled streptavidin and incubated for 1 hour. After TMB solution was added for color development, the OD450 nm absorbance value was read on a microplate reader.
# [9] = target: T5, biotin-labeled human VEGF (ACRO, …); assay: competition ELISA: human VEGFR2 (Fc tag) coated, antibody mixed with biotinylated human VEGF, streptavidin-HRP
# Method: as §4
# [10] = target: T4, human PD-1 (ACRO, Fc tag); assay: competition ELISA: human PD-1 (Fc tag) coated, antibody mixed with human PD-L1 (His tag); text: 'except for #48, which only bound to VEGF'
# Method: as §3
# [11] = target: T2, human PD-1 (ACRO, His tag); assay: dual (bridging) ELISA: human PD-1 (His tag) coated, antibody, then biotinylated human VEGF; 'A single targeting antibody failed to bind to two targets simultaneously'
# Method: as §2
# [12] = target: human VEGF-A (human, UniProt P15692-4 27-191, limits assumed); assay: ELISA, VHH-Fc expression supernatant on human VEGF-A
# [13] = target: T1, mouse VEGF-A; assay: ELISA, VHH-Fc expression supernatant on mouse VEGF-A
# Sequence of monkey PD-1 (ACRO, His tag) (B0LAJ3 entry or part of it limits assumed, form in doubt): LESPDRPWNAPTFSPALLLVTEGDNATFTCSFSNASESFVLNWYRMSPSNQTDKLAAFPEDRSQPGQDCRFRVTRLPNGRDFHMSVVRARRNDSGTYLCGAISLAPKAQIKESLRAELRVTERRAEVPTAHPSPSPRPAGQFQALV
# T2 sequence (Q15116 25-167 limits assumed): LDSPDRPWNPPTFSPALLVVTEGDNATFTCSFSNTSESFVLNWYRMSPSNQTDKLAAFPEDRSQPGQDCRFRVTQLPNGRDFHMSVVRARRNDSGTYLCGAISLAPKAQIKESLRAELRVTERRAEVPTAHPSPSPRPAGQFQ
# T4 sequence (Q15116 25-167 limits assumed): as above
Binder,TOP OD [1],TOP OD [2],TOP OD [3],maximum inhibition rate (HUVEC proliferation) [4],EC50 [1],EC50 [5],TOP OD [5],EC50 [2],EC50 [6],IC50 [7],IC50 [8],IC50 [9],EC50 [3],binding result [10],binding result [11],EC50 [12],EC50 [13]
"Strain #48 VHH (VHH, not shown: a dimerising Fc or GST, Humanized, stabilized variant of #6 (11 Kabat-numbered mutations)) VHH: EVQLLESGGGLVQPGGSLRLSCAASGFTFSTSTMSWYRQAPGKERELVSFITSAGATTYYADSVKGRFTMSRDNSKNTVYLQMNSLRAEDTAVYYCRALVTLWNVYWGQGTLVTVSS",,,0.061 OD450,,,608 pM,3.09 OD450,,,,,5840 pM,,no binding,no binding,,
"Strain #6 VHH (Fc fusion, also called strain 6 (#6); not shown: Fc of the VHH-Fc construct) QVQLQESGGGLVQPGGSLRLSCAASGFTFSTSTMSWYRQAPGKERELVAFITSAGATTNYADSVKDRFTMSRDNDKNTVYLQMNVLKPEDTAMYYCRALVTLWNVYWGQGTQVTVSS",,,,,,,,,,,,,,,,9.33 ng/mL,6.46 ng/mL

# The next lines start with the values.
TOP OD [1],TOP OD [2],TOP OD [3],maximum inhibition rate (HUVEC proliferation) [4],EC50 [1],EC50 [5],TOP OD [5],EC50 [2],EC50 [6],IC50 [7],IC50 [8],IC50 [9],EC50 [3],binding result [10],binding result [11],EC50 [12],EC50 [13],Binder
0.151 OD450,0.127 OD450,0.067 OD450,,,,,,,,,,,,,,,"Bevacizumab (antibody, V domains shown) VH: EVQLVESGGGLVQPGGSLRLSCAASGYTFTNYGMNWVRQAPGKGLEWVGWINTYTGEPTYAADFKRRFTFSLDTSKSTAYLQMNSLRAEDTAVYYCAKYPHYYGSSHWYFDVWGQGTLVTVSS VL: DIQMTQSPSSLSASVGDRVTITCSASQDISNYLNWYQQKPGKAPKVLIYFTSSLHSGVPSRFSGSGSGTDFTLTISSLQPEDFATYYCQQYSTVPWTFGQGTKVEIK"
2.58 OD450,3.38 OD450,3.65 OD450,~60%,114 pM,579 pM,1.75 OD450,171 pM,326 pM,2530 pM,507 pM,3250 pM,117 pM,,,,,"#16 bispecific antibody (bispecific antibody, human IgG1, kappa, Pembrolizumab-based anti-PD-1 IgG with #48 VHH at the C-terminus of the heavy chain; 2+2 valency; functionally silent IgG1 Fc (AEASS)) heavy: QVQLVQSGVEVKKPGASVKVSCKASGYTFTNYYMYWVRQAPGQGLEWMGGINPSNGGTNFNEKFKNRVTLTTDSSTTTAYMELKSLQFDDTAVYYCARRDYRFDMGFDYWGQGTTVTVSSASTKGPSVFPLAPSSKSTSGGTAALGCLVKDYFPEPVTVSWNSGALTSGVHTFPAVLQSSGLYSLSSVVTVPSSSLGTQTYICNVNHKPSNTKVDKKVEPKSCDKTHTCPPCPAPEAEGAPSVFLFPPKPKDTLMISRTPEVTCVVVDVSHEDPEVKFNWYVDGVEVHNAKTKPREEQYNSTYRVVSVLTVLHQDWLNGKEYKCKVSNKALPSSIEKTISKAKGQPREPQVYTLPPSREEMTKNQVSLTCLVKGFYPSDIAVEWESNGQPENNYKTTPPVLDSDGSFFLYSKLTVDKSRWQQGNVFSCSVMHEALHNHYTQKSLSLSPGEVQLLESGGGLVQPGGSLRLSCAASGFTFSTSTMSWYRQAPGKERELVSFITSAGATTYYADSVKGRFTMSRDNSKNTVYLQMNSLRAEDTAVYYCRALVTLWNVYWGQGTLVTVSS light: EIVLTQSPATLSLSPGERATLSCRASKGVSTSGYSYLHWYQQKPGQAPRLLIYLASYLESGVPARFSGSGSGTDFTLTISSLEPEDFAVYYCQHSRDLPLTFGGGTKVEIKRTVAAPSVFIFPPSDEQLKSGTASVVCLLNNFYPREAKVQWKVDNALQSGNSQESVTEQDSKDSTYSLSSTLTLSKADYEKHKVYACEVTHQGLSSPVTKSFNRGEC"
